Changes are numbered by the printed parent chain. Entries after “also recorded” stand apart in the source; their conditions may differ.
B1: MxA: full-length human MxA GTPase, 78 kDa, expressed from a transfected plasmid in PC-3M or LOX cells (protein)
chain: MVVSEVDIAKADPAAASHPLLLNGDATVAQKNPGSVAENNLCSQYEEKVRPCIDLIDSLRALGVEQDLALPAIAVIGDQSSGKSSVLEALSGVALPRGSGIVTRCPLVLKLKKLVNEDKWRGKVSYQDYEIEISDASEVEKEINKAQNAIAGEGMGISHELITLEISSRDVPDLTLIDLPGITRVAVGNQPADIGYKIKTLIKKYIQRQETISLVVVPSNVDIATTEALSMAQEVDPEGDRTIGILTKPDLVDKGTEDKVVDVVRNLVFHLKKGYMIVKCRGQQEIQDQLSLSEALQREKIFFENHPYFRDLLEEGKATVPCLAEKLTSELITHICKSLPLLENQIKETHQRITEELQKYGVDIPEDENEKMFFLIDKVNAFNQDITALMQGEETVGEEDIRLFTRLRHEFHKWSTIIENNFQEGHKILSRKIQKFENQYRGRELPGFVNYRTFETIVKQQIKALEEPAVDMLHTVTDMVRLAFTDVSIKNFEEFFNLHRTAKSKIEDIRAEQEREGEKLIRLHFQMEQIVYCQDQVYRGALQKVREKELEEEKKKKSWDFGAFQSSSATDSSMEEIFQHLMAYHQEASKRISSHIPLIIQFFMLQTYGQQLQKAMLQLLQDKDTYSWLLKERSDTSDKRKFLKERLARLTQARRRLAQFPG
B2: T103 mutant MxA: FLAG-tagged MxA with threonine 103 mutated to alanine; the mutation inactivates GTPase activity (protein)
chain: B1 chain with T103A
modifications: left off: small tags and cut ends

Key:
[1] = tested on: PC-3 cells; assay: MxA protein induction, immunohistochemistry and Western blot; assay type: cell-based, human; conditions: 1000 IU of IFN-α/mL, 24 hours
Experimental: (§1) PC-3 and PC-3M test cells also were treated with recombinant IFN-α (Novartis Pharma—Basel, Switzerland) (1000 IU of IFN-α/mL), grown for 24 hours, fixed, permeabilized, and subjected to immunohistochemical analysis using anti-MxA antibody and DAPI nuclear counterstaining to locate individual cells. […] Western blotting with […] using 100 μg cell lysates confirmed IFN-α-induced increase in MxA expression in both cell lines.

[2] = tested on: PC-3M cells; assay: as above; assay type: cell-based, human; conditions: 1000 IU of IFN-α/mL, 24 hours
Experimental: as §1

[3] = tested on: insoluble cytoskeletal matrix; assay: Cytoskeletal extraction and anti-FLAG immunological analysis; assay type: cell-based; conditions: transfected LOX cells, anti-FLAG antibody
Experimental: MxA-LOX cells and T103 MxA-LOX cells were subjected to immunological analysis using known techniques (see Choi et al., J. Biol. Chem., 272:28479-28484 (1997)) with an anti-FLAG antibody after cytoskeletal extraction, which removed all the soluble proteins, leaving only cytoskeleton-associated proteins. Cytoskeletal preparations were prepared by permeabilizing the cells with 1% Triton X-100 in PHEM buffer (60 mM piperazine-N-N′-bis(2-ethane-sulfonic acid) (PIPES; pH 6.9), 25 mM N-2-hydroxyethlypiperazine-N′-2-ethanesulfonic acid (HEPES), 2 mM MgCl2, and 10 mM ethylene glycol-bis(b-aminoethyl ether)-N,N,N′N′-tetraacetic acid (EGTA, pH 6.9)) for 2 minutes, fixing the cells with 3.7% formaldehyde for 10 minutes at room temperature (see Hartwig, J. Cell Biol. 118:1421-1442 (1992)). Fixed cells were incubated with appropriate primary and secondary antibodies and the nuclei counterstained with 4,6-daimidino-2-phenylinodole (DAPI). Cells were visualized with a Zeiss Axiophot microscope and images were captured using an Optronics CCD camera.
To further investigate the relationship between MxA and microtubules, soluble proteins were extracted from the LOX cells, using standard techniques, and the insoluble cytoskeletal matrix was examined for associated proteins.

[4] = tested on: PC-3M cells; assay: In vitro motility, migration through 8-μm pore membrane; assay type: cell-based, human; conditions: 24 hours
Experimental: The PC-3M cells of Example 1 were transfected with a pCIneo plasmid (Promega, Madison, Wis.) expressing full-length MxA or a plasmid constructed from pHβ Apr-1 comprising an MxA sequence operably linked to a CMV promoter, and two stable cell lines were selected. PC-3M cells stably transfected with a plasmid expressing β-galactosidase (β-gal) were used as a control. MXA expression was not detected in the PC-3M β-gal cells.
The motility of PC-3M transfectants in vitro was tested by measuring the ability of the cells to migrate through pores in a membrane. Briefly, FALCON cell culture inserts with an 8-μm pore-size PET membrane (Fisher Scientific, Franklin Lake, N.J.) were placed into the wells of a 24-well plate, each well containing 0.5 ml of complete medium (RPMI 1640 with 10% FBS, 1% antimycotic-antibiotic solution, and 500 μg mL^−1 G418). Control and MxA-transfected cells were trypsinized, suspended at 1.5×10^5 cells/ml in complete medium, and 350μl of the cell suspension was added to each insert. Following incubation for 24 hours at 37° C., cells from the upper surface of the membrane were removed by scrubbing with a cotton swab. Cells that had migrated through the insert and adhered to the bottom of the membrane were Wright stained using the CAMCO Quik Stain kit (Fisher Scientific), visualized using a Zeiss Axiophot microscope or Leica DMIRB microscope, and counted.

[5] = tested on: tubulin; assay: Coimmunoprecipitation with anti-α-tubulin and anti-MxA antibodies; assay type: binding; conditions: transfected LOX cell lysates
Experimental: (§2) Immunoprecipitation was performed by known techniques (Bang et al., Proc. Natl. Acad. Sci. USA 91:5330-5334 (1994)). Briefly, cell lysates were obtained and incubated with the indicated antibodies overnight at 4° C. The immunocomplex was immobilized on protein A/G-Sepharose (Santa Cruz Biotechnologies), resolved on SDS-polyacrylamide gels, transferred to nitrocellulose filters, and immunoblotted with the indicated antibodies.
Using the LOX cells stably transfected with the […] MxA construct, as described in the preceding Examples, whole cell lysates were prepared and immunoprecipitated with anti-α-tubulin antibodies, anti-MxA antibodies, and protein A/protein G-coated Sepharose beads alone, and the resulting compositions were subjected to Western blotting with anti-FLAG antibody (Sigma).

[6] = tested on: PC-3M cells; assay: Experimental hepatic metastasis assay; assay type: in vivo, beige/SCID mice; conditions: 2×10^6 PC3M-MxA cells into the spleen; β-gal control 23.3±3.3 days
Experimental: The in vivo effects of MxA expression on tumor growth and metastatic potential was also tested using an experimental hepatic metastasis assay. Briefly, 2×10^6 cells from the PC3M-MxA cell line and the PC-3M-β-gal cell line were injected into the spleens of beige/SCID mice. Mice were monitored at least three times weekly for evidence of tumor development, quantification of tumor size, and evidence of tumor and/or metastasis-associated morbidity. Animal survival time was determined, and mean survival time was compared between the two treatment groups.

[7] = tested on: PC-3M cells; assay: Time-lapse video microscopy of cell motility; assay type: cell-based, human; conditions: PC-3M-MxA vs PC-3M-β-gal cells, 250 minute recording
Experimental: Using time-lapse video microscopy, PC-3M cells stably transfected with an MxA construct (as described in Example 2) were observed and compared to control PC-3M-β-gal cells. Specifically, PC-3M-βgal and PC-3M-MxA cells were seeded in 25 cm^2 flasks and cultured for 24 hours. After 24 hours, the flasks were filled with pre-warmed complete medium and cell motility was observed using by phase-contrast microscopy using an Optronics cooled CCD camera mounted on a Leica DMIRB inverted microscope. During observation, the cells were maintained at 37° C. using an ASI 400 Air Stream Incubator (Nevtek—Burnsville, Va.). Time-lapse video microscopy (250 minute recording converted into 1 minute of playing time) was converted into QuickTime movies using Adobe Premier 5.1.

[8] = tested on: PC-3M cells; assay: Primary tumor growth assay; assay type: in vivo, beige/SCID mice; conditions: 2×10^6 PC3M-MxA cells subcutaneously; β-gal control 29.8±3.4 days
Experimental: The effect of MxA expression on tumor growth in vivo was first tested using a primary tumor growth assay. 2×10^6 recombinant PC-3M cells expressing […] MxA (PC3M-MxA) or 2×10^6 recombinant PC-3M-β-gal cells (expressing β-gal) were injected subcutaneously into 30 beige/SCID mice (Charles River Laboratories, Wilmington, Mass.), and the time to formation of a 2-cm subcutaneous tumor (as measured using Vernier calipers) was determined by monitoring the mice at least three times weekly for evidence of tumor development, quantification of tumor size, and evidence of tumor/metastasis-associated morbidity. Subcutaneous tumor size was quantified using Vernier Calipers. Criteria for sacrifice included tumor growth to greater than 2.0 cm, ill thrift, anorexia, dehydration, decreased activity and grooming behavior, and dyspnea.

[9] = tested on: actin; assay: Coimmunoprecipitation with actin in PC-3 cells; assay type: binding, human; conditions: endogenous MxA in PC-3 cells
Experimental: as §2

[10] = tested on: LOX cells; assay: In vitro invasion, BIOCOAT Matrigel invasion chamber; assay type: cell-based, human; conditions: stably transfected LOX cells vs β-gal control LOX cells

| Molecule | level of MxA protein after exposure to IFN-α [1] | level of MxA protein after exposure to IFN-α [2] | association with insoluble cytoskeletal matrix after cytoskeletal extraction [3] | motility, % of the β-gal control cells ([4]; PC-3M stably expressing MxA, lowest level seen) [%] | motility, % lower than the β-gal control cells ([4]; all MxA-expressing PC-3M cells, both cases tested) | association with tubulin by coimmunoprecipitation [5] | survival [6] [days] | mobility of PC-3M cells by visual observation [7] | time to develop a 2-cm tumor mass [8] [days] | co-immunoprecipitation with actin [9] | in vitro invasive activity, % of control cells [10] [%] |
| --- | --- | --- | --- | --- | --- | --- | --- | --- | --- | --- | --- |
| IFN-α | increased substantially | became detectable | – | – | – | – | – | – | – | – | – |
| B1 | – | – | remained bound to the matrix | 24.3 | at least 22.4% | associated with cell microtubules and particularly tubulin; also recorded: detected in the complex with tubulin | 54.3 ± 11.2 | significantly inhibited | 46.8 ± 9.9 | did not co-immunoprecipitate | 15.1 |
| B2 | – | – | undetectable; also recorded: washed out of the insoluble preparation | – | – | did not associate | – | – | – | – | 119 |
